Results taken from patent US20190010233A1 (JIANGSU HYAMAB PHARMACEUTICAL, published 2019).
Like-named read-outs stand apart in the source and are kept apart here.

How the values were obtained:
[1] = target: T1, full length human PD-L1 on cells (human, UniProt Q9NZQ7 19-290); test: cell-based or functional assay
[2] = target: T1, full length human PD-L1 on cells; test: cell-based or functional assay; remark: listed apart in the source
[3] = target: T1, full length human PD-L1 on cells; test: cell-based or functional assay; remark: listed apart in the source
[4] = target: T1, full length human PD-L1 on cells; test: cell-based or functional assay; remark: listed apart in the source
[5] = target: T1, full length human PD-L1 on cells; test: cell-based or functional assay; remark: listed apart in the source
[6] = target: T1, full length human PD-L1 on cells; test: FACS CHOK1-hPD-L1, 3 nM mAb
[7] = target: T1, full length human PD-L1 on cells; test: FACS CHOK1-hPD-L1, 30 nM mAb
[8] = target: T2, full length cyno PD-L1 on cells (cyno, UniProt G7PSE7 19-290); test: FACS CHO-K1-cPD-L1, 3 nM mAb
T2 construct: also called CHO-K1-cPD-L1

[9] = target: T1, full length human PD-L1 on cells; test: FACS CHOK1-hPD-L1, 0.3 nM mAb
[10] = target: T1, full length human PD-L1 on cells; test: FACS CHOK1-hPD-L1, 300 nM mAb
[11] = target: T2, full length cyno PD-L1 on cells; test: FACS CHO-K1-cPD-L1, 30 nM mAb
[12] = target: T1, full length human PD-L1 on cells; test: FACS CHOK1-hPD-L1, 0.03 nM mAb
[13] = target: T2, full length cyno PD-L1 on cells; test: FACS CHO-K1-cPD-L1, 0.3 nM mAb
[14] = target: T2, full length cyno PD-L1 on cells; test: FACS CHO-K1-cPD-L1, 300 nM mAb
[15] = target: T1, full length human PD-L1 on cells; test: FACS CHOK1-hPD-L1, 0.003 nM mAb
[16] = target: T2, full length cyno PD-L1 on cells; test: FACS CHO-K1-cPD-L1, 0.03 nM mAb
[17] = target: T1, full length human PD-L1 on cells; test: FACS CHOK1-hPD-L1, 0.0003 nM mAb
[18] = target: T2, full length cyno PD-L1 on cells; test: FACS CHO-K1-cPD-L1, 0.003 nM mAb
[19] = target: T2, full length cyno PD-L1 on cells; test: FACS CHO-K1-cPD-L1, 0.0003 nM mAb
[20] = target: T3, recombinant His-tagged hPD-L1 ECD protein (human, UniProt Q9NZQ7 19-239); test: SPR Biacore T200, mAb captured by anti-human Fc, His-tagged hPD-L1 ECD as analyte, 1:1 model
T3 construct: also called His-tagged human PD-L1 ECD protein; His-tagged PD-L1^ECD; not shown: His tag
Protocol: Anti-human Fc IgG was immobilized on flow cells 1 and 2: HBS-EP+ (10 mM HEPES, 150 mM NaCl, 3 mM EDTA, 0.05% P20, pH 7.4) was used as miming buffer, and the immobilization of anti-human Fc IgG was carried out using the immobilization wizard template. Flow cells 1 and 2 of a Series S CM5 sensor chip were activated with freshly-mixed 50 mmol/L NHS and 200 mmol/L EDC. 20 μg/mL of anti-human Fc IgG diluted in 10 mM NaAC (pH 4.5) was injected into the activated flow cells 1 and 2. The remaining active coupling sites were blocked with 1M ethanolamine.
KD measurements were carried out with HBS-EP+ as the running buffer. Each antibody was injected over the CM5 sensor flow cell 2 with a flow rate of 10 μL/min to reach response 230 RU. […] Buffer flow was maintained for 400 seconds for dissociation measurements (30 μL/min). To remove the tested antibody from the surface, 10 mM glycine-HCl pH 1.5 was injected for 20 seconds (30 μL/min). Flow cell 1 was used as reference flow cell. The above steps were repeated for each concentration of serially-diluted His-tagged PD-L1^ECD protein. The KD value for each antibody was evaluated using Biacore T200 evaluation software 1.0, and the data was fit with a 1:1 binding model.

[21] = target: T4, human PD-L1^ECD-hFc protein (human, UniProt Q9NZQ7 19-239, biotinylated in the PD-1 binding ELISA (Table 3) and in the Octet assay (Table 12)); test: ELISA receptor-ligand blocking assay: PD-L1 protein coated, fully human antibody titrated, blocked ligand PD-1, inhibition rate (%)
T4 construct: The plain and the biotinylated protein are kept as one molecule; also called PD-L1-hFc; Immunogen A; not shown: human IgG Fc fragment (hFc)

[22] = target: T4, human PD-L1^ECD-hFc protein; test: ELISA receptor-ligand blocking assay: PD-L1 protein coated, fully human antibody titrated, blocked ligand B7.1, inhibition rate (%)

T3 sequence (Q9NZQ7 19-239): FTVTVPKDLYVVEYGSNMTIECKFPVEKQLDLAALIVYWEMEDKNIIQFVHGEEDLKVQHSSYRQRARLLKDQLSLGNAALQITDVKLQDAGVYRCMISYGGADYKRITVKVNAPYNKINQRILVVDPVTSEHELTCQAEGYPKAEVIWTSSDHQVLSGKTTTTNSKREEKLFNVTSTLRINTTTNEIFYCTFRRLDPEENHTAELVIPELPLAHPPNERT
T1 sequence (Q9NZQ7 19-290 limits assumed): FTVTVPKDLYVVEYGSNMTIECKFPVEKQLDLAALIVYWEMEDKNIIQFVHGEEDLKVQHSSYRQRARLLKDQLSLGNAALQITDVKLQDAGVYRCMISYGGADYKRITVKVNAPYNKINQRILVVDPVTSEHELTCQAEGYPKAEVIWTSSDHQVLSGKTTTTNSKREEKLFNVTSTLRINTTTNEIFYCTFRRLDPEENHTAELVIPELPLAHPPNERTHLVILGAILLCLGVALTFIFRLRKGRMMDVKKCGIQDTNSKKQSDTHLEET
T2 sequence (G7PSE7 entry or part of it limits assumed): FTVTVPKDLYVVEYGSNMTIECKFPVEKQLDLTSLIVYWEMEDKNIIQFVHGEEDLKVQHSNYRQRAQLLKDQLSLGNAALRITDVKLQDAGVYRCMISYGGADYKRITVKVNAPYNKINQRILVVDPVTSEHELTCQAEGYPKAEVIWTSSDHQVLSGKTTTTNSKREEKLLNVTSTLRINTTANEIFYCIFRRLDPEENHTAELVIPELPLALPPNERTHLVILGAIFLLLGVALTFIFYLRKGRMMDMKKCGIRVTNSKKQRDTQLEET
T4 sequence (Q9NZQ7 19-239): as the sequence (Q9NZQ7 19-239) above

B1: fully human anti-PD-L1 antibody 73D3G2 (antibody, human IgG4 S228P, kappa, V domains shown)
VH: EVQLVESGGGLVQPGGSLRLSCAASGFTFNTYWMNWVRQAPGRGLEWVANIKQDGGEKYYVDSVKGRFTISRDNAKNSLYLQMNSLRAEDTAMYYCARDGRSWYPDAFDIWGQGTVVTVSS
VL: DIQMTQSPSTLSASVGDRVTITCRASQSISTWLAWYQQKLGKAPKLLIYEVSILESGVPSRFSGSGSGTEFTLTISSLQPDDFATYYCQQYHSFSSFGGGTRVEIKR
notes: also called 73D3G2 (fully human)
**Q.** Which results are given for B1?
**A.** IL-2 (pg/mL), MLR, 0.001 µg/mL mAb [1]: 59.7 pg/mL; IL-2 (pg/mL), MLR, 0.01 µg/mL mAb [1]: 83.4 pg/mL; IL-2 (pg/mL), MLR, 0.1 µg/mL mAb [1]: 114 pg/mL; IL-2 (pg/mL), MLR, 1 µg/mL mAb [1]: 139 pg/mL; IL-2 (pg/mL), MLR, 0.001 µg/mL mAb [2]: 205 pg/mL; IL-2 (pg/mL), MLR, 0.01 µg/mL mAb [2]: 218 pg/mL; IL-2 (pg/mL), MLR, 0.1 µg/mL mAb [2]: 563 pg/mL; IL-2 (pg/mL), MLR, 1 µg/mL mAb [2]: 716 pg/mL; IL-2 (pg/mL), MLR, 10 µg/mL mAb [2]: 791 pg/mL; IFN-γ (pg/mL), MLR, 0.001 µg/mL mAb [3]: 957 pg/mL; IFN-γ (pg/mL), MLR, 0.01 µg/mL mAb [3]: 1080 pg/mL; IFN-γ (pg/mL), MLR, 0.1 µg/mL mAb [3]: 1990 pg/mL; IFN-γ (pg/mL), MLR, 1 µg/mL mAb [3]: 3040 pg/mL; IFN-γ (pg/mL), MLR, 10 µg/mL mAb [3]: 2590 pg/mL; IFN-γ (pg/mL), MLR, 0.001 µg/mL mAb [4]: 12500 pg/mL; IFN-γ (pg/mL), MLR, 0.01 µg/mL mAb [4]: 10000 pg/mL; IFN-γ (pg/mL), MLR, 0.1 µg/mL mAb [4]: 21000 pg/mL; IFN-γ (pg/mL), MLR, 1 µg/mL mAb [4]: 21500 pg/mL; IFN-γ (pg/mL), MLR, 10 µg/mL mAb [4]: 21400 pg/mL; IFN-γ (pg/mL), T cell stimulation assay, 0.001 µg/mL mAb [5]: 4450 pg/mL; IFN-γ (pg/mL), T cell stimulation assay, 0.01 µg/mL mAb [5]: 10600 pg/mL; IFN-γ (pg/mL), T cell stimulation assay, 0.1 µg/mL mAb [5]: 12300 pg/mL; IFN-γ (pg/mL), T cell stimulation assay, 1 µg/mL mAb [5]: 12300 pg/mL; IFN-γ (pg/mL), T cell stimulation assay, 10 µg/mL mAb [5]: 14000 pg/mL; Mean fluorescence intensity [6]: 576; Mean fluorescence intensity [7]: 595; Mean fluorescence intensity [8]: 495; Mean fluorescence intensity [9]: 193; Mean fluorescence intensity [10]: 602; Mean fluorescence intensity [11]: 519; Mean fluorescence intensity [12]: 28.6; Mean fluorescence intensity [13]: 174; Mean fluorescence intensity [14]: 512; Mean fluorescence intensity [15]: 7.6; Mean fluorescence intensity [16]: 26.2; Mean fluorescence intensity [17]: 4.68; Mean fluorescence intensity [18]: 7.84; Mean fluorescence intensity [19]: 4.87; Kd [20]: 0.536 nM; koff [20]: 0.000757 s⁻¹; kon [20]: 1.41e+06 M⁻¹ s⁻¹; IC50 (read off the curve) [21]: ~1 nM; IC50 (read off the curve) [22]: ~1 nM
